# According to IntAct's records for PubMed 29039417:
# B1: Isoform 2 of Bardet-Biedl syndrome 7 protein (Homo sapiens), Q8IWZ6-2 (parent)
# chain: MDLILNRMDYLQVGVTSQKTMKLIPASRHRATQKVVIGDHDGVVMCFGMKKGEAAAVFKTLPGPKIARLELGGVINTPQEKIFIAAASEIRGFTKRGKQFLSFETNLTESIKAMHISGSDLFLSASYIYNHYCDCKDQHYYLSGDKINDVICLPVERLSRITPVLACQDRVLRVLQGSDVMYAVEVPGPPTVLALHNGNGGDSGEDLLFGTSDGKLALIQITTSKPVRKWEIQNEKKRGGILCIDSFDIVGDGVKDLLVGRDDGMVEVYSFDNANEPVLRFDQMLSESVTSIQGGCVGKDSYDEIVVSTYSGWVTGLTTEPIHKESGPGEELKINQEMQNKISSLRNELEHLQYKVLQERENYQQSSQSSKAKSAVPSFGINDKFTLNKDDASYSLILEVQTAIDNVLIQSDVPIDLLDVDKNSAVVSFSSCDSESNDNFLLATYRCQADTTRLELKIRSIEGQYGTLQAYVTPRIQPKTCQVRQYHIKPLSLHQRTHFIDHDRPMNTLTLTGQFSFAEVHSWVVFCLPEVPEKPPAGECVTFYFQNTFLDTQLESTYRKGEGVFKSDNISTISILKDVLSKEATKRKINLNISYEINEVSVKHTLKLIHPKLEYQLLLAKKVQLIDALKELQIHEGNTNFLIPEYHCILEEADHLQEEYKKQPAHLERLYG
# partner: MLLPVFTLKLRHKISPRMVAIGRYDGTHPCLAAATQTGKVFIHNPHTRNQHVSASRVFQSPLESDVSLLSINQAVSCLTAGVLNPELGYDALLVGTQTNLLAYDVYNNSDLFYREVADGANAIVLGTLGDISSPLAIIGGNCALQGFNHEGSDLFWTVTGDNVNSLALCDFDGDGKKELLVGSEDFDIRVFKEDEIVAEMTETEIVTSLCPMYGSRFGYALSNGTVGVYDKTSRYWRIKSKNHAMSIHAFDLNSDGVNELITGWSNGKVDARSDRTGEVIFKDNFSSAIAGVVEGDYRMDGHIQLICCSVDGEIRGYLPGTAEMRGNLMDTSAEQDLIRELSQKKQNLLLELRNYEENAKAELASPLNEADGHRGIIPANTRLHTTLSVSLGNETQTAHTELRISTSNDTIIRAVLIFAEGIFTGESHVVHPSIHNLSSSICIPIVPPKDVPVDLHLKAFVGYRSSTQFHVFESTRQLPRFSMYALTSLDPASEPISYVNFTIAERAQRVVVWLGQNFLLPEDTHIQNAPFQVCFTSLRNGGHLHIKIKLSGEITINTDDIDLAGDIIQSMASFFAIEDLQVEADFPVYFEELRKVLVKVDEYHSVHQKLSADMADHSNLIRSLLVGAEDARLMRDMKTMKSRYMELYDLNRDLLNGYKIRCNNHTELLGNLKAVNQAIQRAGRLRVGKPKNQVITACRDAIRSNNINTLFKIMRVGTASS
# Variants of: B1
# Details: with bbs2_human BBS2, Q9BXC9
row,Variant,effect of a mutation on the interaction
1,T480E,with no effect
2,F515E,with no effect
3,G466E,disrupting interaction strength
4,E330K,with no effect
5,D568K,with no effect
6,S428E,with no effect
7,D433E,with no effect
8,I381E,with no effect
9,G561A,with no effect
10,L656A,with no effect
11,D578K,with no effect
12,I575K,with no effect
13,T639K,with no effect
14,F385K,with no effect
15,V520E,with no effect
16,E659A,with no effect
17,N640K,with no effect
18,P474E,disrupting interaction strength
19,F641E,with no effect
20,F429A,with no effect
21,H487K,with no effect

row,Variant,effect of a mutation on the interaction
1,V525E,with no effect
2,S601A,with no effect
3,N382E,with no effect
4,I458A,disrupting interaction strength
5,Q482A,with no effect
6,Q482E,with no effect
7,L396P,disrupting interaction strength
8,L625E,with no effect
9,L554A,with no effect
10,S430A,with no effect
11,Y615K,with no effect
12,T542A,with no effect
13,P478K,with no effect
14,P478A,with no effect
15,S571A,with no effect
16,Y394E,with no effect
17,E583K,with no effect
18,Q546K,with no effect
19,S594A,with no effect
20,K566E,with no effect
21,L642K,with no effect

row,Variant,effect of a mutation on the interaction
1,Q633E,with no effect
2,L511E,with no effect
3,S366E,with no effect
4,D438A,with no effect
5,L345A,with no effect
6,D421E,with no effect
7,I334A,with no effect
8,A425K,with no effect
9,F440E,with no effect
10,F440K,with no effect
11,K586A,with no effect
12,L349K,with no effect
13,Q495E,with no effect
14,D390A,with no effect
15,S343K,with no effect
16,E337K,with no effect
17,N590A,with no effect
18,L357K,with no effect
19,S556A,with no effect
20,E539A,with no effect
21,V623K,with no effect

row,Variant,effect of a mutation on the interaction
1,F526E,with no effect
2,V600K,with no effect
3,S424E,with no effect
4,Y558A,with no effect
5,P490L,disrupting interaction strength
6,H494A,with no effect
7,H494E,with no effect
8,L493P,disrupting interaction strength
9,I488E,with no effect
10,S460K,with no effect
11,L667A,with no effect
12,A403E,with no effect
13,I634E,with no effect
14,A653K,with no effect
15,E359K,with no effect
16,H502A,with no effect
17,Y671A,with no effect
18,R453A,with no effect
19,T508E,with no effect
20,C447Y,disrupting interaction strength
21,I342A,with no effect

# Results, then the variant that gave them:
row,effect of a mutation on the interaction,Variant
1,disrupting interaction strength,G466Y
2,with no effect,I500E
3,with no effect,E651K
4,with no effect,S428K
5,with no effect,D501A
6,with no effect,Q553E
7,with no effect,Y363K
8,with no effect,I404A
9,with no effect,T452K
10,with no effect,C527A
11,with no effect,A518E
12,with no effect,T552A
13,with no effect,N598E
14,with no effect,V531K
15,with no effect,V531A
16,with no effect,E599K
17,with no effect,V520K
18,with no effect,V520A
19,with no effect,S374E
20,with no effect,P644A
21,with no effect,P611A
22,with no effect,H351A
23,disrupting interaction strength,V376I
24,with no effect,T386A
25,with no effect,P474A

row,effect of a mutation on the interaction,Variant
1,with no effect,V579E
2,with no effect,L650E
3,with no effect,Y544E
4,with no effect,C540E
5,with no effect,L550E
6,with no effect,L396A
7,with no effect,Q448A
8,with no effect,S344K
9,with no effect,L554K
10,with no effect,S411K
11,with no effect,S411A
12,disrupting interaction strength,P529S
13,with no effect,S434K
14,with no effect,S434E
15,with no effect,H647K
16,with no effect,T542E
17,with no effect,L417K
18,with no effect,L632A
19,with no effect,L632E
20,with no effect,H666E
21,with no effect,Y394A
22,with no effect,L629A
23,with no effect,E583A
24,with no effect,L442A
25,with no effect,V524A

row,effect of a mutation on the interaction,Variant
1,with no effect,L619A
2,with no effect,E533K
3,with no effect,I397A
4,with no effect,R587E
5,with no effect,L398K
6,with no effect,N547A
7,with no effect,K422E
8,disrupting interaction strength,R475A
9,with no effect,T605A
10,with no effect,W523K
11,with no effect,T473E
12,with no effect,I570K
13,disrupting interaction strength,Q477A
14,with no effect,Q616E
15,with no effect,E462A
16,with no effect,T548E
17,disrupting interaction strength,T548S
18,with no effect,K341E
19,with no effect,G327K
20,with no effect,L332E
21,with no effect,D405K
22,with no effect,E519K
23,with no effect,Y595K
24,with no effect,V356K
25,with no effect,L580E

row,effect of a mutation on the interaction,Variant
1,with no effect,A372K
2,disrupting interaction strength,A443E
3,with no effect,I409K
4,with no effect,Y558K
5,with no effect,Y558E
6,with no effect,N406A
7,with no effect,L493A
8,with no effect,S460A
9,with no effect,H655K
10,with no effect,L667E
11,with no effect,L408E
12,with no effect,V483A
13,with no effect,K662A
14,with no effect,P377E
15,with no effect,S378A
16,with no effect,L456E
17,with no effect,H635A
18,with no effect,S492E
19,with no effect,K389E
20,with no effect,Y486E
21,with no effect,Y486A
22,with no effect,N423K
